# From PMC9074039, “Molecular analysis and essentiality of Aro1 shikimate biosynthesis multi-enzyme in Candida albicans” (Life Science Alliance, 2022)
# B1: Aro1_(SK-DHQase-DHSD), C. albicans Aro1 residues 845-1,551 (SK, DHQase and DHSD domains) (domain or fragment, UniProt Q5AME2 845-1551, looked up)
# chain: PPFNTDKHVDKSSDKSIIVIGMRGTGKSTLSEWLASFLGFKMLDMDKYLEEKLGTGIKSLIKAKGWEYFRQEEAIVAKECFTKFSKGYVLSTGGGIVEGEDARQQLKSYADNGGIVLHLHRDLDETVTFLAADTTRPAYSSEVQEVWLRREKWYHECSNYHFYSSHCSTEDEFNHLRRSFVNYIKLITGAERPVVPAGRSAAVVLTSPDLNEVVGDLESITIGADAVELRVDLFKDTSAEFVAAQIAVIRKHADLPIIYTVRTVSQGGKFPDENVDELKSLLLLGIRLGVAYVDLQLTAPNELIEEISSKKGFTRVIGTYQDINGELKWNNVEWKNKYNQGVSMNADIVRLVGKANSIQDNLDLENFKKQNTLKPLIAFNLGSQGKLSQVLNGTFTPISHKLLPNDEEFLTIGELNQTYFDIGGFTAKKFWVIGSPIEHSRSPNLHNAGYKALNLPYQFGRFEATDVDVVYDNLINKPDFGGLAITMPLKLDIMKFATKLSDAAETIGAVNTLIPIEGGYFGDNTDWVGISNSFIRAGVPPKSSSNGLVVGAGGTSRAAIYALHQMGCAKIYLVNRTAAKLEELVKSFPKDYNLEIVETEQQADKASKVSLAVSCIPADKPLDGEVLKKIERILSNGSEQSAGFKPTLLEASYKPRVTPIMKLTEEQYKWKVIPGVEMLVNQGDRQFKLHTGFTAPYEIIHRAVVEE
# notes: Aro1, Candida albicans, residues 845-1551: SK domain (857-1032), linker (1033-1038), DHQase domain (1039-1267), DHSD domain (1268-1551); Four copies in the asymmetric unit; also called Aro1_(SK-DHQ-DHSD); source: E. coli BL21(DE3) Gold, purified (Ni-NTA, TEV cleavage, second Ni-NTA); not shown: His6, N-terminal, cleaved
# B2: Aro1_(DHQS), C. albicans Aro1 residues 1-387 (DHQS domain) (domain or fragment, UniProt Q5AME2 1-387, looked up)
# chain: MSIEKVPILGKETIHVGYGIADHIVREVIANLASSTYVIVTDTNMARTPQYSKLTDDFKTNLSEKRPESRLLTYCVSPGENNKNRATKAAVEDFLLQQGCTRDTVILAVGGGVIGDMIGFVAATFMRGVRVVQVPTTLLAMVDSSVGGKTAIDTPLGKNFIGAFHQPEYVFCDVSFLETLPARQFINGMAEVVKTAAIWNEEEFTRLENFSKKFLSVVTSKKPDLQSIKAELVKTVLESVRVKAGVVSSDEKEAGLRNLLNFGHTIGHAIEAVLTPEALHGECVSIGMIKEAELSRYLGILPPVAVARLSKCLVAYGLPVSIDDKEFLKKVGPKRHYVEIDILLKKMAIDKKNDGSKIRCVLLEKIGKCYQLKAHQVSKQDLSFVLT
# notes: Aro1, Candida albicans, residues 1-387, 3-dehydroquinate synthase (DHQS) domain; Crystallised with NADH and ZnCl2; source: E. coli BL21(DE3) Gold, purified (Ni-NTA, TEV cleavage, second Ni-NTA); not shown: His6, N-terminal, cleaved
# B3: full-length C. albicans Aro1 (enzyme, UniProt Q5AME2 1-1551, looked up)
# chain: MSIEKVPILGKETIHVGYGIADHIVREVIANLASSTYVIVTDTNMARTPQYSKLTDDFKTNLSEKRPESRLLTYCVSPGENNKNRATKAAVEDFLLQQGCTRDTVILAVGGGVIGDMIGFVAATFMRGVRVVQVPTTLLAMVDSSVGGKTAIDTPLGKNFIGAFHQPEYVFCDVSFLETLPARQFINGMAEVVKTAAIWNEEEFTRLENFSKKFLSVVTSKKPDLQSIKAELVKTVLESVRVKAGVVSSDEKEAGLRNLLNFGHTIGHAIEAVLTPEALHGECVSIGMIKEAELSRYLGILPPVAVARLSKCLVAYGLPVSIDDKEFLKKVGPKRHYVEIDILLKKMAIDKKNDGSKIRCVLLEKIGKCYQLKAHQVSKQDLSFVLTDEVLVHPFTNPPKENIIVPPGSKSISNRALILAALGNGTVRVKNLLHSDDTKHMLDAVASLKGAEISTEDNGETIVVKGNGGNLVTSGEELYLGNAGTASRFLTTVASLVGKSQASDDVILTGNARMQERPIGPLVDALGSNGSEIEYLNKQGSLPLKISAGNGLKGGRIELAATISSQYVSSILMCAPYAKEPVTLALVGGKPISQLYIDMTCAMMKSFGIEVTKSTTEEYTYHIPKGTYKNPSEYVIESDASSATYPLAFAAMTGTSCTIPNIGSSSLQGDAKFAVDVLKPMGCKVEQTTTSTTVTGPPRGHLKPLPHVDMEPMTDAFLTASVVAAVAKGGSSTSITGIANQRVKECNRIEAMVTELAKFGVPANELPDGIEIHGIDIEDLKTPEISKRGVSSYDDHRVAMSFSLLAGLCKEPVLILERSTTGKTWPGWWDILHSKFKIELDGYEPPFNTDKHVDKSSDKSIIVIGMRGTGKSTLSEWLASFLGFKMLDMDKYLEEKLGTGIKSLIKAKGWEYFRQEEAIVAKECFTKFSKGYVLSTGGGIVEGEDARQQLKSYADNGGIVLHLHRDLDETVTFLAADTTRPAYSSEVQEVWLRREKWYHECSNYHFYSSHCSTEDEFNHLRRSFVNYIKLITGAERPVVPAGRSAAVVLTSPDLNEVVGDLESITIGADAVELRVDLFKDTSAEFVAAQIAVIRKHADLPIIYTVRTVSQGGKFPDENVDELKSLLLLGIRLGVAYVDLQLTAPNELIEEISSKKGFTRVIGTYQDINGELKWNNVEWKNKYNQGVSMNADIVRLVGKANSIQDNLDLENFKKQNTLKPLIAFNLGSQGKLSQVLNGTFTPISHKLLPNDEEFLTIGELNQTYFDIGGFTAKKFWVIGSPIEHSRSPNLHNAGYKALNLPYQFGRFEATDVDVVYDNLINKPDFGGLAITMPLKLDIMKFATKLSDAAETIGAVNTLIPIEGGYFGDNTDWVGISNSFIRAGVPPKSSSNGLVVGAGGTSRAAIYALHQMGCAKIYLVNRTAAKLEELVKSFPKDYNLEIVETEQQADKASKVSLAVSCIPADKPLDGEVLKKIERILSNGSEQSAGFKPTLLEASYKPRVTPIMKLTEEQYKWKVIPGVEMLVNQGDRQFKLHTGFTAPYEIIHRAVVEE
# notes: Aro1 pentafunctional shikimate pathway multi-enzyme (DHQS, EPSPS, SK, DHQase, DHSD domains), Candida albicans, full length, residues 1-1551; Expressed from the tagged genomic ARO1 alleles under the tetO promoter in C. albicans; the His6TEV tag was removed with TEV protease before SEC and cryo-EM; also called His6TEVAro1; wild-type Aro1; source: C. albicans CaLC6830 …
# How the values were obtained:
# [1] = target: the molecule itself; experiment: crystal structure; Aro1_(SK-DHQase-DHSD), sitting drop, room temperature; four copies in the asymmetric unit
# [2] = target: the molecule itself; experiment: crystal structure; Aro1_(DHQS) with 2 mM NADH and 0.5 mM ZnCl2, sitting drop, room temperature; two copies in the asymmetric unit
# [3] = target: the molecule itself; experiment: SEC; Superdex 200, 150 mM NaCl, 10 mM Hepes pH 7.5; tag-free Aro1 purified from C. albicans
protein,measurement,setting,value
B1,binding result,[1],binds
B2,binding result,[2],binds
B3,stoichiometry N,[3],2
